What all share (test): BLI
For orientation: Biolayer interferometry detects binding as a change in optical thickness at a sensor tip.

The target of assay [1] is WRAIR-5001 (rhesus macaque).
The target of assay [2] is WRAIR-5005 (rhesus macaque).
Assay [3] has as its target WRAIR-5001 (rhesus macaque | human).
The target in assay [4] is WRAIR-5004 (rhesus macaque).
Assay [5] concerns the target WRAIR-5011 (rhesus macaque).

Sequence of WRAIR-5004 (rhesus macaque) (VH, as listed by the source, chain 1 of 2): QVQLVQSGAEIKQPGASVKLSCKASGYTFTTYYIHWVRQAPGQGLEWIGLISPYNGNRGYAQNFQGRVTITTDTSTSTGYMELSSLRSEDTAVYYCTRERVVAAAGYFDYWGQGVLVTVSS
Sequence of WRAIR-5004 (rhesus macaque) (VL, as listed by the source, chain 2 of 2): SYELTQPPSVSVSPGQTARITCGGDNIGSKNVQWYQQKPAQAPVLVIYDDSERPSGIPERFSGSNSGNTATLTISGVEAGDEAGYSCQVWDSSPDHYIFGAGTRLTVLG
Sequence of WRAIR-5005 (rhesus macaque) (VH, as listed by the source, chain 1 of 2): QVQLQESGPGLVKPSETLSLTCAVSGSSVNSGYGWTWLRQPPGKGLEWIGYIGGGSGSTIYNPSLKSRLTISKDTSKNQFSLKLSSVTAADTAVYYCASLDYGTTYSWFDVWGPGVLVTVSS
Sequence of WRAIR-5005 (rhesus macaque) (VL, as listed by the source, chain 2 of 2): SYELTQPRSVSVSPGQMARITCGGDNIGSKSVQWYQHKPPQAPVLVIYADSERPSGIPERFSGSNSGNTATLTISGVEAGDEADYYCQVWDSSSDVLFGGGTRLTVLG
Sequence of WRAIR-5011 (rhesus macaque) (VH, as listed by the source, chain 1 of 2): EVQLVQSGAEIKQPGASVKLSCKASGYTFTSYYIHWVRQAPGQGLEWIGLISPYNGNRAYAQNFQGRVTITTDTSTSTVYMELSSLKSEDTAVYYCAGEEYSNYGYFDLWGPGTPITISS
Sequence of WRAIR-5011 (rhesus macaque) (VL, as listed by the source, chain 2 of 2): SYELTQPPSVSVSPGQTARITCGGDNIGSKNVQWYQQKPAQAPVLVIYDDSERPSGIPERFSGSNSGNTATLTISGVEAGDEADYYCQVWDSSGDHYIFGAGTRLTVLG
Sequence of WRAIR-5001 (rhesus macaque) (VH, as listed by the source, chain 1 of 2): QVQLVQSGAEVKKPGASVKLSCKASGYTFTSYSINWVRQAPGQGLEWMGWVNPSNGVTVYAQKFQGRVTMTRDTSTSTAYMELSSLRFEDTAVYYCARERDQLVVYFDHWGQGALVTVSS
Sequence of WRAIR-5001 (rhesus macaque) (VL, as listed by the source, chain 2 of 2): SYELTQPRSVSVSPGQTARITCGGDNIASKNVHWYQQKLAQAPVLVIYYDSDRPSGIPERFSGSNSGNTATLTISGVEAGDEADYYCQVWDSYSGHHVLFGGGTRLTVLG

In general, koff refers to the first-order rate constant of dissociation. Usually kon stands for the rate constant with which the complex forms. High values mean faster complex formation, low ones slower complex formation. As usually defined, the Kd is the constant that tells how readily two partners part at equilibrium. Lower therefore signals tighter binding. As to SARS-CoV-1 RBD (domain or fragment), the koff worked out at 0.00061 s⁻¹ in assay [1], 0.00318 s⁻¹ in assay [2], 0.00458 s⁻¹ in assay [4] and 0.0014 s⁻¹ in assay [5]. In addition, the kon in assay [1] worked out at 177000 M⁻¹ s⁻¹; in assay [2], 20700 M⁻¹ s⁻¹; in assay [4] it was 158000 M⁻¹ s⁻¹; in assay [5], 110000 M⁻¹ s⁻¹. Further, the Kd in assay [2] was 154 nM; in assay [3], 3.45 nM; in assay [4] it was 28.9 nM; in assay [5], 12.7 nM.
